Measured values as given in article PMC6366900, “Pat1 promotes processing body assembly by enhancing the phase separation of the DEAD-box ATPase Dhh1 and RNA” (eLife, 2019).

T1: Dhh1 (full-length) (S. cerevisiae, UniProt P39517 1-506)
T1 construct: Dhh1, DEAD-box ATPase, S. cerevisiae, full-length; also called DEAD-box ATPase Dhh1; source: purified as described previously (Mugler et al., 2016)
T1 sequence (looked up): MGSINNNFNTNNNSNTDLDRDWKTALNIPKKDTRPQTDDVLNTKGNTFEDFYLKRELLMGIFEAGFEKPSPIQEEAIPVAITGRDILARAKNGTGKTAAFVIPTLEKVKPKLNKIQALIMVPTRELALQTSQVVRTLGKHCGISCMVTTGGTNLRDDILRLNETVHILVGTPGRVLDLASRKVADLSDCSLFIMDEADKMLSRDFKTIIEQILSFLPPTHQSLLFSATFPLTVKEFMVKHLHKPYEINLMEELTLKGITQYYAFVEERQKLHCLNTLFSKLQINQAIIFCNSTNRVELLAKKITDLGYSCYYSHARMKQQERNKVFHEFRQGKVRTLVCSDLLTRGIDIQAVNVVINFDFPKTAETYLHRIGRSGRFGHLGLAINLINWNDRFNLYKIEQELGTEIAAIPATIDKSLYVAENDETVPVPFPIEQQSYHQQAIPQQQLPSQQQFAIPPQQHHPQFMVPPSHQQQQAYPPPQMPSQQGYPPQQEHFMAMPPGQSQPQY


Target: T1, Dhh1 (full-length)
Experiment: pull-down; GST-Pat1-NC and mutants bound to GST-slurry as bait, Dhh1 as prey; 1 hr at 4°C; wash buffer 300 mM NaCl, 10 mM Tris pH 7.5, 0.05 % NP40, washed five times; 12% acrylamide gel, Coomassie
Conditions: both partners purified

| Binder | binding result |
| --- | --- |
| GST-Pat1-NC (domain or fragment, S. cerevisiae, Pat1, S. cerevisiae, N-terminal fragment (Pat1-N), amino acids 5-79; linker, printed as (GGS)4; Cloned into a pETM-CN vector; The His and GST tags were cleaved unless required for pull-down assays; In the droplet assay (functional rows) the protein was Pat1-NC-GFP, not the GST form; also called recombinant Pat1-NC protein; source: E. coli BL21 DE3, purified (Ni2+ sepharose, Superdex 200); not …) GLENSGNARDGPLDFEESYKGYGEHELEENDYLNDETFGDNVQVGTDFDFGNPHSSGSSGNAIGGNGVGATARSYGGSGGSGGSGGSSSYAFNNGNGATNLNKSGGKKFILELIETVYEEILDLEANLRNGQQTDSTAMWEALHIDDSSYDVNPFISMLSFDKGIKIMPRIFNFLDKQQKLKILQKIFNELSHLQIIILSSYKTTPKPTLTQLKKVDLFQMIILKIIVSFLSNNSNFIEIMGLLLQLIRNNNVSFLTTSKIGLNLITILISRAALIKQDSSRSNILSSPEISTWNEIYDKLFTSLESKIQLIFPPREYNDHIMRLQNDKFMDEAYIWQFLASLALSGKLNHQRIIIDEVRDEIFATINEAETLQKKEKELSVLPQRSQELDTELKSIIYNKEKLYQDLNLFLNVMGLVY | binds |
| GST-Pat1-NC^EE (domain or fragment, S. cerevisiae, Pat1, S. cerevisiae, N-terminal fragment (Pat1-N), amino acids 5-79; linker, printed as (GGS)4; Mutant of m1; also called Pat1^EE; phospho-mimetic mutant; source: E. coli BL21 DE3, purified (Ni2+ sepharose, Superdex 200); not shown: GST, N-terminal, kept) GLENSGNARDGPLDFEESYKGYGEHELEENDYLNDETFGDNVQVGTDFDFGNPHSSGSSGNAIGGNGVGATARSYGGSGGSGGSGGSEEYAFNNGNGATNLNKSGGKKFILELIETVYEEILDLEANLRNGQQTDSTAMWEALHIDDSSYDVNPFISMLSFDKGIKIMPRIFNFLDKQQKLKILQKIFNELSHLQIIILSSYKTTPKPTLTQLKKVDLFQMIILKIIVSFLSNNSNFIEIMGLLLQLIRNNNVSFLTTSKIGLNLITILISRAALIKQDSSRSNILSSPEISTWNEIYDKLFTSLESKIQLIFPPREYNDHIMRLQNDKFMDEAYIWQFLASLALSGKLNHQRIIIDEVRDEIFATINEAETLQKKEKELSVLPQRSQELDTELKSIIYNKEKLYQDLNLFLNVMGLVY | binds |
